Data: article PMC4507496 (Biochemical and biophysical research communications, 2015)

Biological target: T1, ATG7 W243A (human, UniProt O95352 1-703, W243A)
T1 sequence (looked up): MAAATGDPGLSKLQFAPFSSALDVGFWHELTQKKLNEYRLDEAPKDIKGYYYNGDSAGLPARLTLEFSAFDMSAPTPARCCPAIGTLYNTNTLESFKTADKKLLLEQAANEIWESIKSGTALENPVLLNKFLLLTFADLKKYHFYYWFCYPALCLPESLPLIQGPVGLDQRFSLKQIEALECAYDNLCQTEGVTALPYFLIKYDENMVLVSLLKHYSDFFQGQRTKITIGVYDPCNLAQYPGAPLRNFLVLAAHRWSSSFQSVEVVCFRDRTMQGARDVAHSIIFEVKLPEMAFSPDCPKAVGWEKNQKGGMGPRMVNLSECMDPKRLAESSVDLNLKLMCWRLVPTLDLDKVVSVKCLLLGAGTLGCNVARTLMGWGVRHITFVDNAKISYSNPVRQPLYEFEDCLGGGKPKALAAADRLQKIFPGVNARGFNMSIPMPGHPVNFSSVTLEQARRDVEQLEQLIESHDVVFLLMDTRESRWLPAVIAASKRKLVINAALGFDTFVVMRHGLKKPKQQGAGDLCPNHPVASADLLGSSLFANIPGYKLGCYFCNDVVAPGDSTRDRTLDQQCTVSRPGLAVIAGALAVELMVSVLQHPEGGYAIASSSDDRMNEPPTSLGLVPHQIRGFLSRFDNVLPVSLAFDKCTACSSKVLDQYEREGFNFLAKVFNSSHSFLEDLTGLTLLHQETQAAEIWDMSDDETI
Test: pull-down

B1: GST-ATG3 (enzyme)
chain: not shown
  binding result: binds
